# Experimental data: patent publication CN1737011A (SHANGHAI MEI EN BIO TECH CO LT, dated 2006)
# B1: 抗HLA-DR10的特异性嵌合单克隆抗体 (131I标记, 131I-HLA-DR10) (antibody, V domains shown)
# VH: QVQLKESGPGLVAPSQSLSITCTISGFSLTSYGVHWVRQPPGKGLEWLVVIWSDGSTTYNSALKSRLSISKDNSKSQVFLKMNSLQTDDTAIYYCASHYGSTLAFASWGHGTLVTVSA
# VL: DIQMTQSPASLSASVGETVTIICRASVNIYSYLAWYQQKQGKSPQLLVYNAKILAEGVPSRFSGSGSGTQFSLKINSLQPEDFGSYYCQHHYGTFTFGSGTKLEIK
# modifications: 131I label by the chloramine-T method; labelled residues not stated
# notes: Mouse/human chimeric IgG1 kappa made in NS0-clym cells (CCTCC C200405); also called HLA-DR10单抗; chLym抗体; not shown: human immunoglobulin gamma-1 heavy chain constant region (from plasmid pSK-γ1); human immunoglobulin kappa light chain constant region (from plasmid pSK-κ)
# Target: HLA-DR10抗原 (on live Raji cells, Burkitt's lymphoma, ATCC CCL-86) (human)
# Experiment: radioimmunoassay with 131I-labelled antibody (5-110 ng/ml) on 10^6 live Raji cells, Scatchard plot, Ka = -(slope/n), n = 2
binder,measurement,value
B1,Ka,3.36e+08 M⁻¹
